In assay [1] the target is T1, Human C3 (human, UniProt P01024 23-1663). In words: cell-based or functional assay.
Assay [2] addresses T1, Human C3. In words: SPR, C3 immobilised. The procedure, abridged: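 Peptide series (5-8 concentrations, 60-120 s, up to 10 min dissociation, Tris pH 7.4 running buffer) flowed over ~3000 RU amine-coupled human C3; MgCl₂ regeneration; at least two independent runs.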
On the technique in general: In SPR one partner is held on a chip, and binding of the other changes the refractive index at the surface.

Experimental findings from patent publication US20220306695A1, “COMPSTATIN ANALOGUES AND THEIR MEDICAL USES” (priority 2019, published 2022) are described below.

Positions of bridges follow the written chain, without caps; N, C: chain ends. Non-standard residues stand in square brackets, D forms with d. Trp(1-Me) = Cn1cc(C[C@H](N)C(=O)O)c2ccccc21; 1Nal = N[C@@H](Cc1cccc2ccccc12)C(=O)O; 2Nal = N[C@@H](Cc1ccc2ccccc2c1)C(=O)O; Sar = CNCC(=O)O

T1 sequence (P01024 23-1663 limits assumed): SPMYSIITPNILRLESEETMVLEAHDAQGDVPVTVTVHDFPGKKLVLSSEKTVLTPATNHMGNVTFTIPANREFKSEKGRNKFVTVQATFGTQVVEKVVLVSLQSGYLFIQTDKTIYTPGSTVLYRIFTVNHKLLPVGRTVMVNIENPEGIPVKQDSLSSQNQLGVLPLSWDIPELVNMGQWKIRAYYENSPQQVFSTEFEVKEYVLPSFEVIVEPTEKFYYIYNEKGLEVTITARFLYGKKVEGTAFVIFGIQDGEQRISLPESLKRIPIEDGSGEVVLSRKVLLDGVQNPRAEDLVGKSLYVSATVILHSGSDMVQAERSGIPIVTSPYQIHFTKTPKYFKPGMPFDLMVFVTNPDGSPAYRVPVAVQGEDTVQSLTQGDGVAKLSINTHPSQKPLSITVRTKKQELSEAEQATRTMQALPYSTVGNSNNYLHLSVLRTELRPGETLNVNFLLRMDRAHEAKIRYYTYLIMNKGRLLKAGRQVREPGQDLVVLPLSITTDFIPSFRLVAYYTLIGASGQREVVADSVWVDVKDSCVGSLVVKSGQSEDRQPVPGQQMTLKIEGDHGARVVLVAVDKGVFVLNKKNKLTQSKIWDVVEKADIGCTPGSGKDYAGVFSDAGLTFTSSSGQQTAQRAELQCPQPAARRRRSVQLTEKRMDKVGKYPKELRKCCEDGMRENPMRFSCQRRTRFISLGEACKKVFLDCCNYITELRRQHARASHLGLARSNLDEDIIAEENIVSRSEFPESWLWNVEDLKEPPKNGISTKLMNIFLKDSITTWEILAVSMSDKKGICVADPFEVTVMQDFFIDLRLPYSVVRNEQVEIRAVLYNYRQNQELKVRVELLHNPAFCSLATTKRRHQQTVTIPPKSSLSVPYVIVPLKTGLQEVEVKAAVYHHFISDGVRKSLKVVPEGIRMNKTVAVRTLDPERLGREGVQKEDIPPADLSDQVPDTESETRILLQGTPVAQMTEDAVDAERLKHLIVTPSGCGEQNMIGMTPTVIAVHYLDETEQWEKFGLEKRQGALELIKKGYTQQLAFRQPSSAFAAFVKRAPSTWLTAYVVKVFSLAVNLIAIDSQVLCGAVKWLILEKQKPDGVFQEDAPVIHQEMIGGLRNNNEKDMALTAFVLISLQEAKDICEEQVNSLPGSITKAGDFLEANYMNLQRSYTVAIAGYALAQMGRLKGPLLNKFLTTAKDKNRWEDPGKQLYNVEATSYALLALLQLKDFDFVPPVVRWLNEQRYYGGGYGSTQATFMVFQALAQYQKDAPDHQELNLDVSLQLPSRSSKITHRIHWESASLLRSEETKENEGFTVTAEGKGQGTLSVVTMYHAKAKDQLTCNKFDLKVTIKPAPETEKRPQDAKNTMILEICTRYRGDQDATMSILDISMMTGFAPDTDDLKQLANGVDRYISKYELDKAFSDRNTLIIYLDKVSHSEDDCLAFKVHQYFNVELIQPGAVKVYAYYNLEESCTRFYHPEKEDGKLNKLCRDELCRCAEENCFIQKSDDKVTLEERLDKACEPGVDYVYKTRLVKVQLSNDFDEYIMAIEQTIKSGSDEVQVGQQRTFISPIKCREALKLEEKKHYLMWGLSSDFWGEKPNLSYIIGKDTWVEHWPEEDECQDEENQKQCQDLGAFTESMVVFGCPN

B1: Compound 23 (peptide)
peptide: Ac-FCIWQDWGEHRCT-NH2
modifications: disulfide 2-12
SMILES: CC[C@H](C)[C@@H]1NC(=O)[C@@H](NC(=O)[C@H](Cc2ccccc2)NC(C)=O)CSSC[C@@H](C(=O)N[C@H](C(N)=O)[C@@H](C)O)NC(=O)[C@H](CCCNC(=N)N)NC(=O)[C@H](Cc2c[nH]cn2)NC(=O)[C@H](CCC(=O)O)NC(=O)CNC(=O)[C@H](Cc2c[nH]c3ccccc23)NC(=O)[C@H](CC(=O)O)NC(=O)[C@H](CCC(N)=O)NC(=O)[C@H](Cc2c[nH]c3ccccc23)NC1=O
For orientation: Kd means a measure of binding affinity in units of concentration. Low readings indicate tighter binding, high ones weaker binding. For the molecule B1, the “IC50[nM], inhibition of hemolysis” value with Human C3 [1] was less than 100 nM. In the assay with Human C3 [2], this molecule yielded a Kd of 2.8 nM.

B2: Compound 43 (peptide)
peptide: Ac-FCIWQDWGEHRCTGAE-NH2
modifications: disulfide 2-12
SMILES: CC[C@H](C)[C@@H]1NC(=O)[C@@H](NC(=O)[C@H](Cc2ccccc2)NC(C)=O)CSSC[C@@H](C(=O)N[C@H](C(=O)NCC(=O)N[C@@H](C)C(=O)N[C@@H](CCC(=O)O)C(N)=O)[C@@H](C)O)NC(=O)[C@H](CCCNC(=N)N)NC(=O)[C@H](Cc2c[nH]cn2)NC(=O)[C@H](CCC(=O)O)NC(=O)CNC(=O)[C@H](Cc2c[nH]c3ccccc23)NC(=O)[C@H](CC(=O)O)NC(=O)[C@H](CCC(N)=O)NC(=O)[C@H](Cc2c[nH]c3ccccc23)NC1=O
Regarding B2, in the assay with Human C3 [1], the “IC50[nM], inhibition of hemolysis” value is less than 100 nM. In the assay with Human C3 [2], this molecule came in with a Kd of 3.3 nM.

B3: Compound 50 (peptide)
peptide: Ac-EGSAICI[2Nal]QDWGEHRC[Sar]E-NH2
modifications: disulfide 6-16
SMILES: CC[C@H](C)[C@H](NC(=O)[C@H](C)NC(=O)[C@H](CO)NC(=O)CNC(=O)[C@H](CCC(=O)O)NC(C)=O)C(=O)N[C@H]1CSSC[C@@H](C(=O)N(C)CC(=O)N[C@@H](CCC(=O)O)C(N)=O)NC(=O)[C@H](CCCNC(=N)N)NC(=O)[C@H](Cc2c[nH]cn2)NC(=O)[C@H](CCC(=O)O)NC(=O)CNC(=O)[C@H](Cc2c[nH]c3ccccc23)NC(=O)[C@H](CC(=O)O)NC(=O)[C@H](CCC(N)=O)NC(=O)[C@H](Cc2ccc3ccccc3c2)NC(=O)[C@H]([C@@H](C)CC)NC1=O
B3: in the assay with Human C3 [1], the “IC50[nM], inhibition of hemolysis” value is less than 100 nM. The same molecule had a dissociation constant (Kd) in the assay with Human C3 [2] of 13 nM.

B4: Compound 81 (peptide)
peptide: Ac-SE[Sar]CI[Trp(1-Me)]QDWGEHRC[Sar]EA-NH2
modifications: disulfide 4-14
SMILES: CC[C@H](C)[C@@H]1NC(=O)[C@@H](NC(=O)CN(C)C(=O)[C@H](CCC(=O)O)NC(=O)[C@H](CO)NC(C)=O)CSSC[C@@H](C(=O)N(C)CC(=O)N[C@@H](CCC(=O)O)C(=O)N[C@@H](C)C(N)=O)NC(=O)[C@H](CCCNC(=N)N)NC(=O)[C@H](Cc2c[nH]cn2)NC(=O)[C@H](CCC(=O)O)NC(=O)CNC(=O)[C@H](Cc2c[nH]c3ccccc23)NC(=O)[C@H](CC(=O)O)NC(=O)[C@H](CCC(N)=O)NC(=O)[C@H](Cc2cn(C)c3ccccc23)NC1=O
B4: in the assay with Human C3 [1], the “IC50[nM], inhibition of hemolysis” value is less than 100 nM. In the assay with Human C3 [2], this molecule displayed a Kd of 9.7 nM.

B5: Compound 61 (peptide)
peptide: Ac-FCI[Trp(1-Me)]QDWGEHRCTGAES-NH2
modifications: disulfide 2-12
SMILES: CC[C@H](C)[C@@H]1NC(=O)[C@@H](NC(=O)[C@H](Cc2ccccc2)NC(C)=O)CSSC[C@@H](C(=O)N[C@H](C(=O)NCC(=O)N[C@@H](C)C(=O)N[C@@H](CCC(=O)O)C(=O)N[C@@H](CO)C(N)=O)[C@@H](C)O)NC(=O)[C@H](CCCNC(=N)N)NC(=O)[C@H](Cc2c[nH]cn2)NC(=O)[C@H](CCC(=O)O)NC(=O)CNC(=O)[C@H](Cc2c[nH]c3ccccc23)NC(=O)[C@H](CC(=O)O)NC(=O)[C@H](CCC(N)=O)NC(=O)[C@H](Cc2cn(C)c3ccccc23)NC1=O
As for B5, the “IC50[nM], inhibition of hemolysis” value in the assay with Human C3 [1] was less than 100 nM. In addition, binding with Human C3 [2] was characterised by a dissociation constant (Kd) of 0.33 nM.

B6: Compound 63 (peptide)
peptide: Ac-FCI[1Nal]QDWGEHRCTGAES-NH2
modifications: disulfide 2-12
SMILES: CC[C@H](C)[C@@H]1NC(=O)[C@@H](NC(=O)[C@H](Cc2ccccc2)NC(C)=O)CSSC[C@@H](C(=O)N[C@H](C(=O)NCC(=O)N[C@@H](C)C(=O)N[C@@H](CCC(=O)O)C(=O)N[C@@H](CO)C(N)=O)[C@@H](C)O)NC(=O)[C@H](CCCNC(=N)N)NC(=O)[C@H](Cc2c[nH]cn2)NC(=O)[C@H](CCC(=O)O)NC(=O)CNC(=O)[C@H](Cc2c[nH]c3ccccc23)NC(=O)[C@H](CC(=O)O)NC(=O)[C@H](CCC(N)=O)NC(=O)[C@H](Cc2cccc3ccccc23)NC1=O
Turning to B6, the “IC50[nM], inhibition of hemolysis” value with Human C3 [1] is less than 100 nM. In the assay with Human C3 [2], the dissociation constant (Kd) was 4.3 nM.

B7: Compound 73 (peptide)
peptide: H-[dY]FCI[Trp(1-Me)]QDW[Sar]EHRCTGAES-NH2
modifications: disulfide 3-13
SMILES: CC[C@H](C)[C@@H]1NC(=O)[C@@H](NC(=O)[C@H](Cc2ccccc2)NC(=O)[C@H](N)Cc2ccc(O)cc2)CSSC[C@@H](C(=O)N[C@H](C(=O)NCC(=O)N[C@@H](C)C(=O)N[C@@H](CCC(=O)O)C(=O)N[C@@H](CO)C(N)=O)[C@@H](C)O)NC(=O)[C@H](CCCNC(=N)N)NC(=O)[C@H](Cc2c[nH]cn2)NC(=O)[C@H](CCC(=O)O)NC(=O)CN(C)C(=O)[C@H](Cc2c[nH]c3ccccc23)NC(=O)[C@H](CC(=O)O)NC(=O)[C@H](CCC(N)=O)NC(=O)[C@H](Cc2cn(C)c3ccccc23)NC1=O
Consider B7, for which, in the assay with Human C3 [1], the “IC50[nM], inhibition of hemolysis” value was less than 100 nM. The same molecule displayed a dissociation constant (Kd) in the assay with Human C3 [2] of 0.3 nM.

B8: Compound 29 (peptide)
peptide: Ac-EGSAICIWQDWGEHRCT-NH2
modifications: disulfide 6-16
SMILES: CC[C@H](C)[C@H](NC(=O)[C@H](C)NC(=O)[C@H](CO)NC(=O)CNC(=O)[C@H](CCC(=O)O)NC(C)=O)C(=O)N[C@H]1CSSC[C@@H](C(=O)N[C@H](C(N)=O)[C@@H](C)O)NC(=O)[C@H](CCCNC(=N)N)NC(=O)[C@H](Cc2c[nH]cn2)NC(=O)[C@H](CCC(=O)O)NC(=O)CNC(=O)[C@H](Cc2c[nH]c3ccccc23)NC(=O)[C@H](CC(=O)O)NC(=O)[C@H](CCC(N)=O)NC(=O)[C@H](Cc2c[nH]c3ccccc23)NC(=O)[C@H]([C@@H](C)CC)NC1=O
On to B8, for which the “IC50[nM], inhibition of hemolysis” value with Human C3 [1] was less than 100 nM. This molecule yielded an equilibrium dissociation constant (Kd) in the assay with Human C3 [2] of 21 nM.

B9: Compound 49 (peptide)
peptide: Ac-EGSAICI[Trp(1-Me)]QDWGEHRC[Sar]E-NH2
modifications: disulfide 6-16
SMILES: CC[C@H](C)[C@H](NC(=O)[C@H](C)NC(=O)[C@H](CO)NC(=O)CNC(=O)[C@H](CCC(=O)O)NC(C)=O)C(=O)N[C@H]1CSSC[C@@H](C(=O)N(C)CC(=O)N[C@@H](CCC(=O)O)C(N)=O)NC(=O)[C@H](CCCNC(=N)N)NC(=O)[C@H](Cc2c[nH]cn2)NC(=O)[C@H](CCC(=O)O)NC(=O)CNC(=O)[C@H](Cc2c[nH]c3ccccc23)NC(=O)[C@H](CC(=O)O)NC(=O)[C@H](CCC(N)=O)NC(=O)[C@H](Cc2cn(C)c3ccccc23)NC(=O)[C@H]([C@@H](C)CC)NC1=O
Take B9: the “IC50[nM], inhibition of hemolysis” value in the assay with Human C3 [1] is less than 100 nM. In the assay with Human C3 [2], this molecule displayed a dissociation constant Kd of 3.2 nM.
